Substrate in this data set: CC(=O)N[C@H]1[C@H](Oc2ccc3c(C)cc(=O)oc3c2)O[C@H](CO)[C@@H](O)[C@@H]1O
As to the kind of experiment: purified protein.

B1: human O-GlcNAcase (hOGA) (Homo sapiens) (protein)
chain: AAGGARRFLCGVVEGFYGRPWVMEQRKELFRRLQKWELNTYLYAPKDDYKHRMFWREMYSVEEAEQLMTLISAAREYEIEFIYAISPGLDITFSNPKEVSTLKRKLDQVSQFGCRSFALLFDDIDHNMCAADKEVFSSFAHAQVSITNEIYQYLGEPETFLFCPTEYCGTFCYPNVSQSPYLRTVGEKLLPGIEVLWTGPKVVSKEIPVESIEEVSKIIKRAPVIWDNIHANDYDQKRLFLGPYKGRSTELIPRLKGVLTNPNCEFEANYVAIHTLATWYKSNMNGVRKDVVMTDSEDSTVSIQIKLENEGSDEDIETDVLYSPQMALKLALTEWLQEFGVPHQYSSRQVAHSGAKASVVDGTPLVAAPSLNATTVVTTVYQEPIMSQGAALSGEPTTLTKEEEKKQPDEEPMDMVVEKQEETDHKNDNQILSEIVEAKMAEELKPMDTDKESIAESKSPEMSMQEDCISDIAPMQTDEQTNKEQFVPGPNEKPLYTAEPVTLEDLQLLADLFYLPYEHGPKGAQMLREFQWLRANSSVVSVNCKGKDSEKIEEWRSRAAKFEEMCGLVMGMFTRLSNCANRTILYDMYSYVWDIKSIMSMVKSFVQWLGCRSHSSAQFLIGDQEPWAFRGGLAGEFQRLLPIDGANDLFFQPPPLTPTSKVYTIRPYFPKDEASVYKICREMYDDGVGLPFQSQPDLIGDKLVGGLLSLSLDYCFVLEDEDGICGYALGTVDVTPFIKKCKISWIPFMQEKYTKPNGDKELSEAEKIMLSFHEEQEVLPETFLANFPSLIKMDIHKKVTDPSVAKSMMACLLSSLKANGSRGAFCEVRPDDKRILEFYSKLGCFEIAKMEGFPKDVVILGRSL
In the case of B1, the Km amounted to 80 ± 6 µM.

The values are drawn from PMC2568864, “Chemical Dissection of the Link between Streptozotocin, O-GlcNAc, and Pancreatic Cell Death” (Chemistry & Biology, 2008).
